Test results: patent publication US7528106B2, “Compositions and methods for treatment of neovascular diseases” (The Scripps Research Institute, priority 2004, dated 2009)

Tested on: deep retinal vascular network formation in neonatal Balb/C mice
Assay: Neonatal mouse retinal angiogenesis model
Format: in vivo
Details: for % of eyes with 0-10% inhibition of deep vascular layer / % of eyes with 10-25% inhibition of deep vascular layer / % of eyes with 25-50% inhibition of deep vascular layer / % of eyes with 50-75% inhibition of deep vascular layer / % of eyes with 75-100% inhibition of deep vascular layer / % of eyes with 100% inhibition of deep vascular layer / % of eyes with >95% inhibition of deep vascular layer: intravitreal P4, read P12
Description: Description of the Model. Immediately after birth (postnatal day zero; “P0”), retinal vasculature is virtually absent in the mouse. By four weeks after birth (P28) the retina has attained an adult pattern of retinal vessels coincident with the onset of vision. Physiological neovascularization of the retina occurs during this period via a stereotypical, biphasic developmental pattern of angiogenesis. During the primary phase of retinal vascular development, spoke-like peripapillary vessels grow radially from the central retinal artery and vein, becoming progressively interconnected by a capillary plexus that forms between them. This “inner retinal plexus” grows in area, volume and complexity, centrifugally, as a monolayer within the nerve fiber layer during the first seven to ten days following birth.
The second phase of retinal vessel formation begins between postnatal days 7 (P7) and 10 (P10) when collateral branches sprout from capillaries of the superficial plexus and penetrate into the retina where their tips branch and anastamose laterally to form a planar “deep vascular plexus”. While the deep vascular plexus is in place by P14, it undergoes extensive remodeling from P14 to P21. It is of interest to note that the formation of these vascular networks in the neonatal mouse are strikingly similar to the events occurring in the third trimester human fetus.
Advantages and Quantification of the Model. The reproducibility of the murine retinal development process and its easy accessibility in neonatal animals provide an opportunity to assess the efficacy of antiangiogenic compounds in a physiologically relevant model of angiogenesis. Additional advantages of the neonatal mouse model are the ability to qualitatively and quantitatively evaluate the angiostatic effect of putative antagonists of angiogenesis. Angiostatic activity was evaluated based upon the degree of angiogenesis in the deep, outer retinal vascular layer (secondary layer) that develops between P8 and P12. The appearance of the inner blood vessel network (primary layer) was evaluated for normal development and signs of toxicity.
Preparation of Compositions. Peptidomimetic integrin signaling inhibitor Compound (1) is solubilized in PBS at a concentration of about 20 mg/ml in PBS (1× concentration). T2-TrpRS is solubilized in PBS at a concentration of about 0.5 mg/ml (1× concentration). VEGF aptamer (pegaptanib sodium; Compound (2)) is solubilized in PBS at a concentration of about 2 mg/ml (1× concentration) to achieve an injection of approximately 1 μg/eye at 1× concentration. For all combination assays the compounds were prepared at 2 or 3 times the 1× concentration of each material and then combined to produce a final solution containing each individual compound at the same concentration as was used alone (e.g., 1×, 0.5×, 0.25× or 0.1×, as the case may be). For all assays, a single injection of 0.5 μl of PBS solutions of the drugs was administered intravitreally regardless of the number of compounds being injected. As used herein, the term “0.1×” refers to one tenth of the 1× concentration of a given material, “0.25×” refers to one quarter of the 1× concentration of a given material, “0.5×” refers to one half of the 1× concentration of a given material, and so forth for similar designations.
An in vivo angiogenesis assay in the neonatal mouse (Balb/C, The Jackson Laboratory, Bar Harbor, Me.) was used to evaluate the angiostatic activity of integrin signaling inhibitor Compound (1), T2-TrpRS, and VEGF aptamer Compound (2). Intravitreous injection and retina isolation was performed with a dissecting microscope (SMZ 645, Nikon, Japan). […] The samples (0.5 μl) were injected with a Hamilton syringe fitted with a 32-gauge needle (Hamilton Company, Reno, Nev.). The injection was made between the equator and the corneal limbus. During injection, the location of the needle tip was monitored by direct visualization to determine that it was in the vitreal cavity. […]

[1] = Ex 2, 0.1× of each (1×: T2-TrpRS 0.5, Comp. (2) 2 mg/ml)
[2] = Ex 3, 1× of each (T2-TrpRS 0.5, Comp. (2) 2 mg/ml)
[3] = Ex 6, 1× of each (T2-TrpRS 0.5, Comp. (2) 2 mg/ml)
[4] = Ex 7, 1× (T2-TrpRS 0.5, Comp. (2) 2 mg/ml)
[5] = Ex 9, 1× of each (Comp. (1) 20, Comp. (2) 2, T2-TrpRS 0.5 mg/ml)

B1: T2-TrpRS: 43 kDa angiostatic T2 fragment of human tryptophanyl-tRNA synthetase, SEQ ID NO: 1 (protein)
chain: MSAKGIDYDKLIVRFGSSKIDKELINRIERATGQRPHHFLRRGIFFSHRDMNQVLDAYENKKPFYLYTGRGPSSEAMHVGHLIPFIFTKWLQDVFNVPLVIQMTDDEKYLWKDLTLDQAYSYAVENAKDIIACGFDINKTFIFSDLDYMGMSSGFYKNVVKIQKHVTFNQVKGIFGFTDSDCIGKISFPAIQAAPSFSNSFPQIFRDRTDIQCLIPCAIDQDPYFRMTRDVAPRIGYPKPALLHSTFFPALQGAQTKMSASDPNSSIFLTDTAKQIKTKVNKHAFSGGRDTIEEHRQFGGNCDVDVSFMYLTFFLEDDDKLEQIRKDYTSGAMLTGELKKALIEVLQPLIAEHQARRKEVTDEIVKEFMTPRKLSFDFQ
modifications: homo sapiens
inhibition of neovascularization (0.1× concentrations (1 μg/eye integrin antagonist, 0.2 μg/eye VEGF aptamer, 0.025 μg/eye T2-TrpRS)): negligible | % of eyes with 0-10% inhibition of deep vascular layer [1]: 50% | % of eyes with 10-25% inhibition of deep vascular layer [1]: 37.5% | % of eyes with 25-50% inhibition of deep vascular layer [1]: 12.5% | % of eyes with 50-75% inhibition of deep vascular layer [1]: 0% | % of eyes with 75-100% inhibition of deep vascular layer [1]: 0% | % of eyes with 100% inhibition of deep vascular layer [1]: 0% | % of eyes with >95% inhibition of deep vascular layer [1]: 0% | % of eyes with 0-10% inhibition of deep vascular layer [2]: 12.5% | % of eyes with 10-25% inhibition of deep vascular layer [2]: 12.5% | % of eyes with 25-50% inhibition of deep vascular layer [2]: 0% | % of eyes with 50-75% inhibition of deep vascular layer [2]: 12.5% | % of eyes with 75-100% inhibition of deep vascular layer [2]: 62.5% | % of eyes with 100% inhibition of deep vascular layer [2]: 12.5% | % of eyes with >95% inhibition of deep vascular layer [2]: 12.5% | % of eyes with 0-10% inhibition of deep vascular layer (Ex 4, 1× (0.5 mg/ml)): 12.5% | % of eyes with 10-25% inhibition of deep vascular layer (Ex 4, 1× (0.5 mg/ml)): 37.5% | % of eyes with 25-50% inhibition of deep vascular layer (Ex 4, 1× (0.5 mg/ml)): 12.5% | % of eyes with 50-75% inhibition of deep vascular layer (Ex 4, 1× (0.5 mg/ml)): 12.5% | % of eyes with 75-100% inhibition of deep vascular layer (Ex 4, 1× (0.5 mg/ml)): 25% | % of eyes with 100% inhibition of deep vascular layer (Ex 4, 1× (0.5 mg/ml)): 0% | % of eyes with >95% inhibition of deep vascular layer (Ex 4, 1× (0.5 mg/ml)): 0% | % of eyes with 0-10% inhibition of deep vascular layer (Ex 5, 1× (0.5 mg/ml)): 33.3% | % of eyes with 10-25% inhibition of deep vascular layer (Ex 5, 1× (0.5 mg/ml)): 16.7% | % of eyes with 25-50% inhibition of deep vascular layer (Ex 5, 1× (0.5 mg/ml)): 33.3% | % of eyes with 50-75% inhibition of deep vascular layer (Ex 5, 1× (0.5 mg/ml)): 0% | % of eyes with 75-100% inhibition of deep vascular layer (Ex 5, 1× (0.5 mg/ml)): 16.7% | % of eyes with 100% inhibition of deep vascular layer (Ex 5, 1× (0.5 mg/ml)): 0% | % of eyes with >95% inhibition of deep vascular layer (Ex 5, 1× (0.5 mg/ml)): 16.7% | % of eyes with 0-10% inhibition of deep vascular layer [3]: 50% | % of eyes with 10-25% inhibition of deep vascular layer [3]: 25% | % of eyes with 25-50% inhibition of deep vascular layer [3]: 12.5% | % of eyes with 50-75% inhibition of deep vascular layer [3]: 12.5% | % of eyes with 75-100% inhibition of deep vascular layer [3]: 0% | % of eyes with 100% inhibition of deep vascular layer [3]: 0% | % of eyes with >95% inhibition of deep vascular layer [3]: 0% | % of eyes with 0-10% inhibition of deep vascular layer [4]: 25% | % of eyes with 10-25% inhibition of deep vascular layer [4]: 12.5% | % of eyes with 25-50% inhibition of deep vascular layer [4]: 12.5% | % of eyes with 50-75% inhibition of deep vascular layer [4]: 0% | % of eyes with 75-100% inhibition of deep vascular layer [4]: 50% | % of eyes with 100% inhibition of deep vascular layer [4]: 0% | % of eyes with >95% inhibition of deep vascular layer [4]: 12.5% | % of eyes with 0-10% inhibition of deep vascular layer (Ex 8, 1× (0.5 mg/ml)): 30% | % of eyes with 10-25% inhibition of deep vascular layer (Ex 8, 1× (0.5 mg/ml)): 30% | % of eyes with 25-50% inhibition of deep vascular layer (Ex 8, 1× (0.5 mg/ml)): 20% | % of eyes with 50-75% inhibition of deep vascular layer (Ex 8, 1× (0.5 mg/ml)): 10% | % of eyes with 75-100% inhibition of deep vascular layer (Ex 8, 1× (0.5 mg/ml)): 10% | % of eyes with 100% inhibition of deep vascular layer (Ex 8, 1× (0.5 mg/ml)): 0% | % of eyes with >95% inhibition of deep vascular layer (Ex 8, 1× (0.5 mg/ml)): 0% | % of eyes with 0-10% inhibition of deep vascular layer [5]: 12.5% | % of eyes with 10-25% inhibition of deep vascular layer [5]: 0% | % of eyes with 25-50% inhibition of deep vascular layer [5]: 25% | % of eyes with 50-75% inhibition of deep vascular layer [5]: 12.5% | % of eyes with 75-100% inhibition of deep vascular layer [5]: 50% | % of eyes with 100% inhibition of deep vascular layer [5]: 0% | % of eyes with >95% inhibition of deep vascular layer [5]: 12.5% | % of eyes with 0-10% inhibition of deep vascular layer (Ex 10, 0.1× (1×=0.5 mg/ml)): 75% | % of eyes with 10-25% inhibition of deep vascular layer (Ex 10, 0.1× (1×=0.5 mg/ml)): 25% | % of eyes with 25-50% inhibition of deep vascular layer (Ex 10, 0.1× (1×=0.5 mg/ml)): 0% | % of eyes with 50-75% inhibition of deep vascular layer (Ex 10, 0.1× (1×=0.5 mg/ml)): 0% | % of eyes with 75-100% inhibition of deep vascular layer (Ex 10, 0.1× (1×=0.5 mg/ml)): 0% | % of eyes with 0-10% inhibition of deep vascular layer (Ex 10, 0.3× (1×=0.5 mg/ml)): 33.3% | % of eyes with 10-25% inhibition of deep vascular layer (Ex 10, 0.3× (1×=0.5 mg/ml)): 16.7% | % of eyes with 25-50% inhibition of deep vascular layer (Ex 10, 0.3× (1×=0.5 mg/ml)): 8.3% | % of eyes with 50-75% inhibition of deep vascular layer (Ex 10, 0.3× (1×=0.5 mg/ml)): 16.7%
